Test results: paper PMC6995525, “Structure of the PUB Domain from Ubiquitin Regulatory X Domain Protein 1 (UBXD1) and Its Interaction with the p97 AAA+ ATPase” (Biomolecules, 2019)
No end group written: not given here.

B1: UBXD1-PUB (150–264) (domain or fragment, UniProt Q9BZV1 150-264, looked up)
chain: STDPVAASIMKIYTFNKDQDRVKLGVDTIAKYLDNIHLHPEEEKYRKIKLQNKVFQERINCLEGTHEFFEAIGFQKVLLPAQDQEDPEEFYVLSETTLAQPQSLERHKEQLLAAE
notes: UBXD1 (ubiquitin regulatory X domain protein 1), PUB domain construct, residues 150-264; Cloned into pET28a (NdeI/HindIII); a few vector residues probably remain after thrombin cleavage (surmised); Theoretical MW 13.80 kDa; 15N- or 13C,15N-labelled for NMR; also called UBXD1-PUB wt; wild type (wt); source: E. coli Rosetta2, purified (Ni-NTA, thrombin cleavage of the tag, SEC); not shown: His6, …

Key:
Conditions in all cases: both partners purified
full-length p97 = molecular target: T1, full-length p97 (UniProt P55072 1-806); test: fluorescence polarisation; fluorescence anisotropy of UBXD1-PUB wt with full length p97; which partner was labeled and titrated is not told
T1 construct: AAA+ ATPase p97 / valosin-containing protein (VCP) / Cdc48, full length; Cloning, tags and purification of p97-fl are not described; the methods say only that 'all proteins were expressed in Escherichia coli Rosetta2' and purified by Ni-NTA and SEC after thrombin cleavage; also called p97-fl; VCP
T1 sequence (P55072 whole entry): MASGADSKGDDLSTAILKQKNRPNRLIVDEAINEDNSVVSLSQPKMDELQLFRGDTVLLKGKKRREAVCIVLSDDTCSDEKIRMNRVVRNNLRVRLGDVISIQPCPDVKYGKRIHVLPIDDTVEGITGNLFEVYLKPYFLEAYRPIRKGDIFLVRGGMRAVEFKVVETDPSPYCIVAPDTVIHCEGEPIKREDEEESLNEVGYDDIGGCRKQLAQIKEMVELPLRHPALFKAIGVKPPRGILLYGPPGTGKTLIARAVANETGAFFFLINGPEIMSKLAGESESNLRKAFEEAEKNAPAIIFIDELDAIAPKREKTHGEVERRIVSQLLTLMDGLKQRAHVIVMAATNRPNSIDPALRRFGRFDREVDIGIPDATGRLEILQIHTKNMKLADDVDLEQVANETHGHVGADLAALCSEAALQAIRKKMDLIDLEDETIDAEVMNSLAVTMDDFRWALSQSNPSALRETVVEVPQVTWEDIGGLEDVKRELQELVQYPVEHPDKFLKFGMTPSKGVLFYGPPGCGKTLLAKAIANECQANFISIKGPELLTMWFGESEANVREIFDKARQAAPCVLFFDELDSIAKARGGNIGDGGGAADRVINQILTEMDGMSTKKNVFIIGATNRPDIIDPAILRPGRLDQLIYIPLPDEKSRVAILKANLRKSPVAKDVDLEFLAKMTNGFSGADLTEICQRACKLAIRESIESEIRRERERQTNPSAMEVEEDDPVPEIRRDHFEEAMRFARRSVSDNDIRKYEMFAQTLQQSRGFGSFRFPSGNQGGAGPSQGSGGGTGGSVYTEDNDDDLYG

[1] = molecular target: T2, UBXD1-PUB (150–264) Y194A (UniProt Q9BZV1 150-264, Y194A); test: fluorescence polarisation; fluorescence anisotropy; PUB constructs titrated to 100 nM 5,6-FAM labeled p97-C10 peptide; 50 mM NaKPi pH 6.5, 25 °C; triplicate; one-site quadratic fit
T2 construct: UBXD1 PUB domain construct, residues 150-264, point mutant; source: E. coli Rosetta2, purified (Ni-NTA, thrombin cleavage of the tag, SEC); not shown: His6, N-terminal, cleaved
T2 sequence (looked up): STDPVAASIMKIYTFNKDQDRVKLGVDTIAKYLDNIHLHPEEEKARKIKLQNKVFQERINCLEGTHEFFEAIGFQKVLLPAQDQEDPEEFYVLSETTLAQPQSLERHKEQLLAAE

UBXD1-PUB (150–264) [2] = molecular target: B1; test: as above
[3] = molecular target: T3, UBXD1-PUB (150–264) K198E (UniProt Q9BZV1 150-264, K198E); test: as above
T3 construct: UBXD1 PUB domain construct, residues 150-264, point mutant; source: E. coli Rosetta2, purified (Ni-NTA, thrombin cleavage of the tag, SEC); not shown: His6, N-terminal, cleaved
T3 sequence (looked up): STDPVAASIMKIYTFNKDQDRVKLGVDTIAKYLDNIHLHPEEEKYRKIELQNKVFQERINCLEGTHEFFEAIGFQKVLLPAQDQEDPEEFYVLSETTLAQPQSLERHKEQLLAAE

[4] = molecular target: T4, UBXD1-PUB (150–264) V203A (UniProt Q9BZV1 150-264, V203A); test: as above
T4 construct: UBXD1 PUB domain construct, residues 150-264, point mutant; source: E. coli Rosetta2, purified (Ni-NTA, thrombin cleavage of the tag, SEC); not shown: His6, N-terminal, cleaved
T4 sequence (looked up): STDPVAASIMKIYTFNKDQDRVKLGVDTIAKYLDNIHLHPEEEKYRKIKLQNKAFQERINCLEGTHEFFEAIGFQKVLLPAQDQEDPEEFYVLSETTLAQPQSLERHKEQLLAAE

[5] = molecular target: T5, UBXD1-PUB (150–264) Y181F (UniProt Q9BZV1 150-264, Y181F); test: as above
T5 construct: UBXD1 PUB domain construct, residues 150-264, point mutant; source: E. coli Rosetta2, purified (Ni-NTA, thrombin cleavage of the tag, SEC); not shown: His6, N-terminal, cleaved
T5 sequence (looked up): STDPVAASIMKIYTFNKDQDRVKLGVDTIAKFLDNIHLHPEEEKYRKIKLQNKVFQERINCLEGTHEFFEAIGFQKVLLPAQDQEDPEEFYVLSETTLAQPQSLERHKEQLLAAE

[6] = molecular target: T6, UBXD1-PUB (150–264) Y181A (UniProt Q9BZV1 150-264, Y181A); test: as above
T6 construct: UBXD1 PUB domain construct, residues 150-264, point mutant; source: E. coli Rosetta2, purified (Ni-NTA, thrombin cleavage of the tag, SEC); not shown: His6, N-terminal, cleaved
T6 sequence (looked up): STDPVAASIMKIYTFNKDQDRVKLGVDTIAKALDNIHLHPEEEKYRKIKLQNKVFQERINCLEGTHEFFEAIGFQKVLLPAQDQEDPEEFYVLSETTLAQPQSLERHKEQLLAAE

[7] = molecular target: T7, UBXD1-PUB (150–264) N201A (UniProt Q9BZV1 150-264, N201A); test: as above
T7 construct: UBXD1 PUB domain construct, residues 150-264, point mutant; source: E. coli Rosetta2, purified (Ni-NTA, thrombin cleavage of the tag, SEC); not shown: His6, N-terminal, cleaved
T7 sequence (looked up): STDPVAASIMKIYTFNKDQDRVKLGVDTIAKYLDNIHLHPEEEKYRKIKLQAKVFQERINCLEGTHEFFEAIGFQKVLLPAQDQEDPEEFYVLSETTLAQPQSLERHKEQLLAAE

[8] = molecular target: T8, UBXD1-PUB (150–264) N184A (UniProt Q9BZV1 150-264, N184A); test: as above
T8 construct: UBXD1 PUB domain construct, residues 150-264, point mutant; source: E. coli Rosetta2, purified (Ni-NTA, thrombin cleavage of the tag, SEC); not shown: His6, N-terminal, cleaved
T8 sequence (looked up): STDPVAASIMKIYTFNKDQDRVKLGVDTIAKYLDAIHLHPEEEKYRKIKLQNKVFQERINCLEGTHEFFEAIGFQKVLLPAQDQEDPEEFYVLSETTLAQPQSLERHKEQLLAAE

[9] = molecular target: T9, UBXD1-PUB (150–264) Y194F (UniProt Q9BZV1 150-264, Y194F); test: as above
T9 construct: UBXD1 PUB domain construct, residues 150-264, point mutant; source: E. coli Rosetta2, purified (Ni-NTA, thrombin cleavage of the tag, SEC); not shown: His6, N-terminal, cleaved
T9 sequence (looked up): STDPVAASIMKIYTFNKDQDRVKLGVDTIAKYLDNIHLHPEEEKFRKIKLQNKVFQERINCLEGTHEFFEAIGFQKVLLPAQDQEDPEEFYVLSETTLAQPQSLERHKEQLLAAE

[10] = molecular target: T10, UBXD1-PUB (150–264) E206R (UniProt Q9BZV1 150-264, E206R); test: as above
T10 construct: UBXD1 PUB domain construct, residues 150-264, point mutant; source: E. coli Rosetta2, purified (Ni-NTA, thrombin cleavage of the tag, SEC); not shown: His6, N-terminal, cleaved
T10 sequence (looked up): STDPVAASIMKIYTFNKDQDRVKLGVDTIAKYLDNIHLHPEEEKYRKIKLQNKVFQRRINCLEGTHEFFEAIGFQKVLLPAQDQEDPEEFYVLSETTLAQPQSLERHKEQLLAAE

[11] = molecular target: T11, UBXD1-PUB (150–264) N201D (UniProt Q9BZV1 150-264, N201D); test: as above
T11 construct: UBXD1 PUB domain construct, residues 150-264, point mutant; source: E. coli Rosetta2, purified (Ni-NTA, thrombin cleavage of the tag, SEC); not shown: His6, N-terminal, cleaved
T11 sequence (looked up): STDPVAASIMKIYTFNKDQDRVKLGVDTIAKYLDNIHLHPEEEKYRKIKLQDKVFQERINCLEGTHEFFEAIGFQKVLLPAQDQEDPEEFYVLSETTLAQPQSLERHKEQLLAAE

[12] = molecular target: T12, UBXD1-PUB (150–264) R207E (UniProt Q9BZV1 150-264, R207E); test: as above
T12 construct: UBXD1 PUB domain construct, residues 150-264, point mutant; source: E. coli Rosetta2, purified (Ni-NTA, thrombin cleavage of the tag, SEC); not shown: His6, N-terminal, cleaved
T12 sequence (looked up): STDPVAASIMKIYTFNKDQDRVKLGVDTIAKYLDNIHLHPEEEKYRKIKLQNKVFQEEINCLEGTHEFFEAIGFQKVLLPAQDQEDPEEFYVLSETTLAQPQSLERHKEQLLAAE

[13] = molecular target: T13, UBXD1-PUB (150–264) N184D (UniProt Q9BZV1 150-264, N184D); test: as above
T13 construct: UBXD1 PUB domain construct, residues 150-264, point mutant; source: E. coli Rosetta2, purified (Ni-NTA, thrombin cleavage of the tag, SEC); not shown: His6, N-terminal, cleaved
T13 sequence (looked up): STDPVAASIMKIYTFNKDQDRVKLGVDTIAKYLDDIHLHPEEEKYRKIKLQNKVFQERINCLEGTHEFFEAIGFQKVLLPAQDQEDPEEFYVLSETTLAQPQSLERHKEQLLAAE

[14] = molecular target: T14, UBXD1-PUB (150–264) Q200A (UniProt Q9BZV1 150-264, Q200A); test: as above
T14 construct: UBXD1 PUB domain construct, residues 150-264, point mutant; source: E. coli Rosetta2, purified (Ni-NTA, thrombin cleavage of the tag, SEC); not shown: His6, N-terminal, cleaved
T14 sequence (looked up): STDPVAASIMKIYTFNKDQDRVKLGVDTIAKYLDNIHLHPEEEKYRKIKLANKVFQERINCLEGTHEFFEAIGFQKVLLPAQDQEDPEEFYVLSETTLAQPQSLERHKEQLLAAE

[15] = molecular target: T15, UBXD1-PUB (150–264) K193E (UniProt Q9BZV1 150-264, K193E); test: as above
T15 construct: UBXD1 PUB domain construct, residues 150-264, point mutant; source: E. coli Rosetta2, purified (Ni-NTA, thrombin cleavage of the tag, SEC); not shown: His6, N-terminal, cleaved
T15 sequence (looked up): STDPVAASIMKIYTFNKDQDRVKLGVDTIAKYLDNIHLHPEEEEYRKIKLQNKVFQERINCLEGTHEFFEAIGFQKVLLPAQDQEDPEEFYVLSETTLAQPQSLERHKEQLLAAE

UBXD1-PUB (150–264) [16] = molecular target: B1; test: ITC; UBXD1-PUB (100 µM) titrated with 1 mM p97-C10 peptide; 50 mM NaKPi pH 6.5, 25 °C; single-site model; triplicate, parameters averaged

## B1
full-length p97
  Kd: 8.4 µM

B2: 5,6-FAM-labeled p97-C10 peptide (peptide)
peptide: TEDNDDDLYG
modifications: also: 5,6-FAM label, position not given here
notes: source: synthetic peptide, bought: Caslo ApS (Denmark)
[1]
  Kd: 53 µM
UBXD1-PUB (150–264) [2]
  Kd: 13.8 µM
[3]
  Kd: 49.3 µM
[4]
  Kd: 25.3 µM
[5]
  Kd: 28.4 µM
[6]
  Kd: 111 µM
[7]
  Kd: 64.1 µM
[8]
  Kd: 28.7 µM
[9]
  Kd: 141 µM
[10]
  Kd: 39.4 µM
[11]
  Kd: 280 µM
[12]
  Kd: 88 µM
[13]
  Kd: 80 µM
[14]
  Kd: 8.3 µM
[15]
  Kd: 17.7 µM

B3: p97-C10 peptide (unlabeled) (peptide)
peptide: TEDNDDDLYG
notes: also called p97-PIM; p97-C10 PIM peptide; source: synthetic peptide, bought: Caslo ApS (Denmark)
UBXD1-PUB (150–264) [16]
  Kd: 15 ± 5 µM
  dH: -3.25 ± 0.483 kcal/mol
  stoichiometry N: 1.1 ± 0.2
